Results: patent US9481899B2, “Methods and compositions for producing hydrocarbons” (priority 2008, dated 2016)

System: E. coli MG1655
Assay: Coexpression of decarbonylase and aldehyde-generating enzyme in E. coli, GC-MS of hydrocarbons
Assay type: cell-based
Details: for Production of Alkanes and Alkenes: alkane/alkene biosynthetic polypeptide coexpressed in E. coli with the aldehyde biosynthetic polypeptide of the same table row; for fatty aldehyde decarbonylase activity in E. coli: cotransformed with S. elongatus PCC7942_1594 into E. coli MG1655, M9 minimal media, 37° C.
Description: Seven cyanobacteria, whose complete genome sequences are publicly available, were selected for verification and/or detection of alkane biosynthesis: Synechococcus elongatus PCC7942, Synechococcus elongatus PCC6301, Anabaena variabilis ATCC29413, Synechocystis sp. PCC6803, Nostoc punctiforme PCC73102, Gloeobacter violaceus ATCC 29082, and Prochlorococcus marinus CCMP1986. Only the first three cyanobacterial strains from this list had previously been reported to contain alkanes (Han et al., J. Am. Chem. Soc. 91:5156-5159 (1969); Fehler et al., Biochem. 9:418-422 (1970)). The strains were grown photoautotrophically in shake flasks in 100 mL of the appropriate media (listed in Table 8) for 3-7 days at 30° C. at a light intensity of approximately 3,500 lux. Cells were extracted for alkane detection as follows: cells from 1 mL culture volume were centrifuged for 1 min at 13,000 rpm, the cell pellets were resuspended in methanol, vortexed for 1 min and then sonicated for 30 min. After centrifugation for 3 min at 13,000 rpm, the supernatants were transferred to fresh vials and analyzed by GC-MS. The samples were analyzed on either 30 m DP-5 capillary column (0.25 mm internal diameter) or a 30 m high temperature DP-5 capillary column (0.25 mm internal diameter) using the following method.
After a 1 μL splitless injection (inlet temperature held at 300° C.) onto the GC/MS column, the oven was held at 100° C. for 3 mins. The temperature was ramped up to 320° C. at a rate of 20° C./min. The oven was held at 320° C. for an additional 5 min. The flow rate of the carrier gas helium was 1.3 mL/min. The MS quadrapole scanned from 50 to 550 m/z. Retention times and fragmentation patterns of product peaks were compared with authentic references to confirm peak identity.
The genomic DNA encoding Synechococcus elongatus PCC7942 orf1594 (YP_400611; putative aldehyde-generating enzyme) (SEQ ID NO:65) was amplified and cloned into the NcoI and EcoRI sites of vector OP-80 (pCL1920 derivative) under the control of the Ptrc promoter. The resulting construct (“OP80-PCC7942_1594”) was transformed into E. coli MG1655 and the cells were grown at 37° C. in M9 minimal media with 1% (w/v) glucose as carbon source and supplemented with 100 μg/mL spectinomycin. When the culture reached OD600 of 0.8-1.0, it was induced with 1 mM IPTG and cells were grown for an additional 18-20 h at 37° C. Cells from 0.5 mL of culture were extracted with 0.5 mL of ethyl acetate. After sonication for 60 min, the sample was centrifuged at 15,000 rpm for 5 min. The solvent layer was analyzed by GC-MS as described in Example 1.
The genomic DNA encoding Synechococcus elongatus PCC7942 orf1593 (YP_400610; putative decarbonylase) (SEQ ID NO:1) was amplified and cloned into the NdeI and XhoI sites of vector OP-183 (pACYC derivative) under the control of the Ptrc promoter. The resulting construct was cotransformed with OP80-PCC7942_1594 into E. coli MG1655 and the cells were grown at 37° C. in M9 minimal media supplemented with 100 μg/mL spectinomycin and 100 μg/mL carbenicillin. The cells were cultured and extracted as in Example 3 and analyzed by GC-MS as described in Example 1. […]

## SEQ ID NO: 1: Synechococcus elongatus PCC7942 orf1593, putative decarbonylase
  Production of Alkanes and Alkenes: yes
  fatty aldehyde decarbonylase activity in E. coli: active fatty aldehyde decarbonylase

B1: SEQ ID NO: 29: Cyanothece sp. PCC7425 Cyan7425_0398, putative decarbonylase (protein, listed as Cyanothece sp.)
chain: MPQVQSPSAIDFYSETYQDAYSRIDAIVIEGEQEAHDNYLKLTELLPDCQEDLVRLAKMEARHKKGFEACGRNLKVTPDMEFAQQFFADLHNNFQKAAAANKIATCLVIQALIIECFAIAAYNIYIPVADDFARKITENVVKDEYTHLNFGEEWLKANFDSQREEVEAANRENLPIVWRMLNQVETDAHVLGMEKEALVESFMIQYGEALENIGFSTREIMRMSVYGLSAA
  Production of Alkanes and Alkenes: yes
  fatty aldehyde decarbonylase activity in E. coli: active fatty aldehyde decarbonylase

B2: SEQ ID NO: 3: Synechocystis sp. PCC6803 sll0208, putative decarbonylase (protein, listed as Synechocystis sp.)
chain: MPELAVRTEFDYSSEIYKDAYSRINAIVIEGEQEAYSNYLQMAELLPEDKEELTRLAKMENRHKKGFQACGNNLQVNPDMPYAQEFFAGLHGNFQHAFSEGKVVTCLLIQALIIEAFAIAAYNIYIPVADDFARKITEGVVKDEYTHLNYGEEWLKANFATAKEELEQANKENLPLVWKMLNQVQGDAKVLGMEKEALVEDFMISYGEALSNIGFSTREIMRMSSYGLAGV
  Production of Alkanes and Alkenes: yes

B3: SEQ ID NO: 51: Prochlorococcus mariunus NATL2A PMN2A_1863, putative decarbonylase, codon optimized for E. coli (protein, listed as Prochlorococcus marinus)
chain: MQAFASNNLTVEKEELSSNSLPDFTSESYKDAYSRINAVVIEGEQEAYSNFLDLAKLIPEHADELVRLGKMEKKHMNGFCACGRNLAVKPDMPFAKTFFSKLHNNFLEAFKVGDTTTCLLIQCILIESFAISAYHVYIRVADPFAKRITEGVVQDEYLHLNYGQEWLKANLETVKKDLMRANKENLPLIKSMLDEVSNDAEVLHMDKEELMEEFMIAYQDSLLEIGLDNREIARMALAAVI
  Production of Alkanes and Alkenes: yes
  fatty aldehyde decarbonylase activity in E. coli: active fatty aldehyde decarbonylase

B4: SEQ ID NO: 27: Cyanothece sp. ATCC51142 cce_0778, putative decarbonylase (protein, listed as Cyanothece sp.)
chain: MQELALRSELDFNSETYKDAYSRINAIVIEGEQEAYQNYLDMAQLLPEDEAELIRLSKMENRHKKGFQACGKNLNVTPDMDYAQQFFAELHGNFQKAKAEGKIVTCLLIQSLIIEAFAIAAYNIYIPVADPFARKITEGVVKDEYTHLNFGEVWLKEHFEASKAELEDANKENLPLVWQMLNQVEKDAEVLGMEKEALVEDFMISYGEALSNIGFSTREIMKMSAYGLRAA
  Production of Alkanes and Alkenes: yes
  fatty aldehyde decarbonylase activity in E. coli: active fatty aldehyde decarbonylase

B5: SEQ ID NO: 31: Cyanothece sp. PCC7425 Cyan7425_2986, putative decarbonylase (protein, listed as Cyanothece sp.)
chain: MSDCATNPALDYYSETYRNAYRRVNGIVIEGEKQAYDNFIRLAELLPEYQAELTRLAKMEARHQKSFVACGQNLKVSPDLDFAAQFFAELHQIFASAANAGQVATCLVVQALIIECFAIAAYNTYLPVADEFARKVTASVVQDEYSHLNFGEVWLQNAFEQCKDEIITANRLALPLIWKMLNQVTGELRILGMDKASLVEDFSTRYGEALGQIGFKLSEILSLSVQGLQAVTP
  Production of Alkanes and Alkenes: yes
  fatty aldehyde decarbonylase activity in E. coli: active fatty aldehyde decarbonylase

B6: SEQ ID NO: 13: Synechococcus sp. JA-3-3Ab CYA_0415, putative decarbonylase (protein, listed as Synechococcus sp.)
chain: MAPANVLPNTPPSPTDGGGTALDYSSPRYRQAYSRINGIVIEGEQEAHDNYLKLAEMLPEAAEELRKLAKMELRHMKGFQACGKNLQVEPDVEFARAFFAPLRDNFQSAAAAGDLVSCFVIQSLIIECFAIAAYNIYIPVADDFARKITEGVVKDEYLHLNFGERWLGEHFAEVKAQIEAANAQNLPLVRQMLQQVEADVEAIYMDREAIVEDFMIAYGEALASIGFNTREVMRLSAQGLRAA
  Production of Alkanes and Alkenes: yes

B7: SEQ ID NO: 49: Prochlorococcus marinus MIT9313 PMT1231, putative decarbonylase, codon optimized for E. coli (protein, listed as Prochlorococcus marinus)
chain: MPTLEMPVAAVLDSTVGSSEALPDFTSDRYKDAYSRINAIVIEGEQEAHDNYIAIGTLLPDHVEELKRLAKMEMRHKKGFTACGKNLGVEADMDFAREFFAPLRDNFQTALGQGKTPTCLLIQALLIEAFAISAYHTYIPVSDPFARKITEGVVKDEYTHLNYGEAWLKANLESCREELLEANRENLPLIRRMLDQVAGDAAVLQMDKEDLIEDFLIAYQESLTEIGFNTREITRMAAAALVS
  Production of Alkanes and Alkenes: yes
  fatty aldehyde decarbonylase activity in E. coli: active fatty aldehyde decarbonylase

B8: SEQ ID NO: 11: Thermosynechococcus elongatus BP-1 tll1313, putative decarbonylase (protein, listed as Thermosynechococcus elongatus)
chain: MTTATATPVLDYHSDRYKDAYSRINAIVIEGEQEAHDNYIDLAKLLPQHQEELTRLAKMEARHKKGFEACGRNLSVTPDMEFAKAFFEKLRANFQRALAEGKTATCLLIQALIIESFAIAAYNIYIPMADPFARKITESVVKDEYSHLNFGEIWLKEHFESVKGELEEANRANLPLVWKMLNQVEADAKVLGMEKDALVEDFMIQYSGALENIGFTTREIMKMSVYGLTGA
  Production of Alkanes and Alkenes: yes
  fatty aldehyde decarbonylase activity in E. coli: active fatty aldehyde decarbonylase
